Data: IntAct's records for PubMed 17196169

B1: Programmed cell death protein 6 (Homo sapiens), O75340 (parent)
chain: MAAYSYRPGPGAGPGPAAGAALPDQSFLWNVFQRVDKDRSGVISDTELQQALSNGTWTPFNPVTVRSIISMFDRENKAGVNFSEFTGVWKYITDWQNVFRTYDRDNSGMIDKNELKQALSGFGYRLSDQFHDILIRKFDRQGRGQIAFDDFIQGCIVLQRLTDIFRRYDTDQDGWIQVSYEQYLSMVFSIV
partner: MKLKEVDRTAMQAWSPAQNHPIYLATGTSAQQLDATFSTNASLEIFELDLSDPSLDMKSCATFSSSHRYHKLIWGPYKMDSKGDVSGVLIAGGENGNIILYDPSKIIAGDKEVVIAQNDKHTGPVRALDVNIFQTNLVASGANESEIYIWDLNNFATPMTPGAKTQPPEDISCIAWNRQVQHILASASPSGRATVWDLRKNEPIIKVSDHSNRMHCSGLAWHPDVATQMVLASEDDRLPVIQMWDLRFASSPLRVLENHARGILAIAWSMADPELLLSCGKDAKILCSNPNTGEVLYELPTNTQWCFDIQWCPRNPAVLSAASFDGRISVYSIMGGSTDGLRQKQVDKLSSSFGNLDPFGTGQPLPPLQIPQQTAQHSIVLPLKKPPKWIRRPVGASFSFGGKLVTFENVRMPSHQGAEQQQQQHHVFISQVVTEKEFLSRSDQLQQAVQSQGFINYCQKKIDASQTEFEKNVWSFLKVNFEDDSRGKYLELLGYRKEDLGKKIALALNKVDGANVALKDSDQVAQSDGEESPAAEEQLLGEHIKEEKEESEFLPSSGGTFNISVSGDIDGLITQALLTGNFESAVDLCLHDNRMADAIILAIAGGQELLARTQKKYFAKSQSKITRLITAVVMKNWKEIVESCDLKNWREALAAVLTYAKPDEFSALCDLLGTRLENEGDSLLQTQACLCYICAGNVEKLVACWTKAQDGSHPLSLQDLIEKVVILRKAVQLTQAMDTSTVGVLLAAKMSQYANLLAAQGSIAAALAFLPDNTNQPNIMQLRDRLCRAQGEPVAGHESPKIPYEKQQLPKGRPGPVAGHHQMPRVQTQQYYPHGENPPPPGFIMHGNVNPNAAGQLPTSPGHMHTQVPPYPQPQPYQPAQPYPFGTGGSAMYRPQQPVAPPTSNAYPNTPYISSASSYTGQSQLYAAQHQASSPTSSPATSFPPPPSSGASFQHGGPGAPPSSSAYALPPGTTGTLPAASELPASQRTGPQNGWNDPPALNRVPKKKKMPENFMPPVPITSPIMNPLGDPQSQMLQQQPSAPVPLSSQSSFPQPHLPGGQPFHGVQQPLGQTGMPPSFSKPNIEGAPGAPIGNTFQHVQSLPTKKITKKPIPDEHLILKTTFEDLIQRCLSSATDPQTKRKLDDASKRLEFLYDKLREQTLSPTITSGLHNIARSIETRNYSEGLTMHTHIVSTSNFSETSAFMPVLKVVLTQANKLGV

Variants of: B1
Settings: with sc31a_human SEC31A

Variant	effect of a mutation on the interaction
E47A;E114A	decreasing interaction
